Laboratory results taken from US20210079378A1 (Chugai, published 2021).
Changes are numbered by the printed parent chain. Values belong to the binder of their own block, whether it stands above or below them.

How the values were obtained:
[1] = biological target: T1, soluble mouse IL-31 receptor (mouse, UniProt Q8K5B1 19-499); assay: SPR Biacore T100, 25C, pH 5.5; antibody captured on protein A/G chip, soluble mouse IL-31 receptor analyte; pH 5.5
T1 construct: Soluble form
T1 sequence (looked up): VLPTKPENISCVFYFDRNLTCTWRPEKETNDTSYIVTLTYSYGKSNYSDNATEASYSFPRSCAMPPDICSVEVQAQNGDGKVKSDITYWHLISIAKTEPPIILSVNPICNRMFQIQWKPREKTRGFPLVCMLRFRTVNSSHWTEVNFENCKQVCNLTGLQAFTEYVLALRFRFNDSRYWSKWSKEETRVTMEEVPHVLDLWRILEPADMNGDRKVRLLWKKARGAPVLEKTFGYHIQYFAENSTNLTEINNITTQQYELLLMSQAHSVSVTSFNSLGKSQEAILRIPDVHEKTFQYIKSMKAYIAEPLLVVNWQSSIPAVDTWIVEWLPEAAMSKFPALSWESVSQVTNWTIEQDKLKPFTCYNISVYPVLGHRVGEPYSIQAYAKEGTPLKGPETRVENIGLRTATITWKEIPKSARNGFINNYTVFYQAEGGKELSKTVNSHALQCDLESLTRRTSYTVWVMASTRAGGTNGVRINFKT
Experimental: Kinetic analysis of antigen-antibody reactions at pH 5.5 and pH 7.4 was carried out using a Biacore T100™ surface plasmon resonance system (GE Healthcare) for the two types of antibodies prepared as mentioned above: Anti-IL31R wild type and Anti-IL31R clone 1 (buffer: DPBS(−) (pH 7.4 or pH 5.5), 150 mM NaCl, 0.01% TWEEN® 20 (polyoxyethelene sorbitan monolaurate), 0.02% NaN₃). The antibodies were bound to a sensor chip on which recomb-protein A/G (Pierce) was immobilized by amine coupling, and then the soluble mouse IL-31 receptor (prepared according to the method described in WO 2007/142325) adjusted to an appropriate concentration was injected therein as an analyte. All the measurements were carried out at 25° C. Association rate constants kₐ (1/Ms) and dissociation rate constants kd (1/s) were calculated using Biacore T100™ Evaluation Software (GE Healthcare), and dissociation constants KD (M) were calculated based on those values (Table 16). Furthermore, the ratio of affinity at pH 5.5 and pH 7.4 was calculated for each clone to evaluate the pH-dependent binding.

[2] = biological target: T2, recombinant soluble human IL-6 receptor (SR344) (human, UniProt P08887 20-344); assay: SPR Biacore T100, 37C; antibody captured on protein A/G chip, SR344 analyte; pH 5.8 vs pH 7.4
T2 construct: In the membrane-type IL-6 receptor assays the same protein was biotinylated and immobilised on the sensor chip via streptavidin, as stated under assay; also called soluble IL-6 receptor; membrane-type IL-6 receptor (as biotinylated SR344 immobilised on the chip)
T2 sequence (looked up): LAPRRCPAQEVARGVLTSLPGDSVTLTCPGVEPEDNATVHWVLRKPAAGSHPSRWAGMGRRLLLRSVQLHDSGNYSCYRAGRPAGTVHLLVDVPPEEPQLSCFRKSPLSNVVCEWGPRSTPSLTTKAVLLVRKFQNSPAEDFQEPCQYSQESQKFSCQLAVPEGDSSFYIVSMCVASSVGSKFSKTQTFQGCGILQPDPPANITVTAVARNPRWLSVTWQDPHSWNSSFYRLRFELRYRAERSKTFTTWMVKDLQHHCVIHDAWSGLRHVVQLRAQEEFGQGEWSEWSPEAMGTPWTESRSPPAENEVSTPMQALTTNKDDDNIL
Experimental: Kinetic analyses of antigen-antibody reactions at pH 5.8 and pH 7.4 were carried out using a Biacore™ T100 surface plasmon resonance system (GE Healthcare) on the four antibodies: humanized PM1 antibody (WT) and H3pI/L73, CLH5/L73, and H170/L82 produced in Examples 2 and 4 (buffer: 10 mM MES (pH 7.4 or pH 5.8), 150 mM NaCl, and 0.05% TWEEN® 20 (polyoxyethelene sorbitan monolaurate)). Various antibodies were bound onto a sensor chip immobilized with recomb-protein A/G (Pierce) by amine coupling. SR344 adjusted to concentrations of 9.8 to 400 nM was injected to the chip as an analyte. […] All the measurements were carried out at 37° C. Association rate constants kₐ (1/Ms) and dissociation rate constants kd (1/s) were calculated using Biacore T100™ Evaluation Software (GE Healthcare), and dissociation constants KD (M) were calculated on the basis of those values (Table 5). Moreover, the ratio of the affinities at pH 5.8 and pH 7.4 were calculated for each clone to evaluate pH-dependent binding. All the measurements were carried out at 37° C.

kon [1]: 51000 M⁻¹ s⁻¹
B1: Anti-IL31R wild type (antibody, human IgG1, lambda, V domains shown)
VH: not shown
VL: LPVLTQPPSVSVAPGQTARITCGGNNIGSKTVYWYQQEPGQAPVLVVYDDTDRPAGIPERFSGANSGNTATLTISRVEAGDEADYYCQVWDSSTDHGVFGGGTKLTVLG
notes: Antibody described in WO 2007/142325; also called anti-IL-31 receptor antibody H chain (WT)/L chain (WT)

affinity ratio between pH 5.8 and pH 7.4 [2]: 41 fold
B2: H3pI/L73 (antibody, IgG1, V domains shown)
VH: QVQLQESGPGLVKPSETLSLTCAVSGHSISHDHAHSWVRQPPGEGLEWIGYISYSGITNYNPSLKGRVTISRDTSKNQFSLKLSSVTAADTAAYYCARSLARTTAMDYWGEGTLVTVSS
VL: DIQMTQSPSSLSASVGDSVTITCQASQHISSHLNWYQQKPGKAPELLIYYGSHLHSGVPSRFSGSGSGTDFTFTISSLEAEDAATYYCGQGNRLPYTFGQGTKVEIE
notes: Tested as IgG1; also called H3pI/L73-IgG1; H3pl/L73

affinity ratio between pH 5.8 and pH 7.4 [2]: 66 fold
B3: CLH5/L73 (antibody, IgG1, V domains shown)
VH: B2 VH with H27Y, H35W, Y51H, S63H, S99F, T103I, M106H, Y108H
VL: B2 VL
notes: Expressed and purified as IgG

affinity ratio between pH 5.8 and pH 7.4 [2]: 394 fold
B4: H170/L82 (antibody, IgG1, V domains shown)
VH: B2 VH with D32H, N59H, S63H, S99V, T103I, Y108H
VL: B2 VL with H28D
notes: Tested as IgG1; also called H170/L82-IgG1
